The conditions of this data set: Homo sapiens, pH 7.3, 25 °C, Sodium citrate 5mM, KF 50mM, transition: 2, reversible: no, whole UniProt chain shown.

B1: Pleckstrin homology domain-containing family F member 2 wild type, Q9H8W4 (protein)
chain: MVDRLANSEANTRRISIVENCFGAAGQPLTIPGRVLIGEGVLTKLCRKKPKARQFFLFNDILVYGNIVIQKKKYNKQHIIPLENVTIDSIKDEGDLRNGWLIKTPTKSFAVYAATATEKSEWMNHINKCVTDLLSKSGKTPSNEHAAVWVPDSEATVCMRCQKAKFTPVNRRHHCRKCGFVVCGPCSEKRFLLPSQSSKPVRICDFCYDLLSAGDMATCQPARSDSYSQSLKSPLNDMSDDDDDDDSSD
B1: the denaturant m value (GdnHCl, CD) amounted to 2.48 kcal/mol/M; the denaturant m value (GdnHCl, Fluorescence) turned out to be 2.93 kcal/mol/M; the denaturant m value (Urea, CD) turned out to be 1.16 kcal/mol/M; the denaturant m value (Urea, Fluorescence) was found to be 1.19 kcal/mol/M. Moreover, the “denaturant midpoint (higher = more stable)” value (“denaturant midpoint” below) (GdnHCl, CD) stood at 1.51 M; the “denaturant midpoint” value (GdnHCl, Fluorescence) came to 1.3 M; the “denaturant midpoint” value (Urea, CD) was 3.45 M; the “denaturant midpoint” value (Urea, Fluorescence) turned out to be 3.42 M. Also, the unfolding free energy worked out at 3.75 kcal/mol (GdnHCl, CD); 3.8 kcal/mol (GdnHCl, Fluorescence); 4 kcal/mol (Urea, CD); 4.07 kcal/mol (Urea, Fluorescence).

Source of the values: FireProtDB (doi:10.1002/pro.3128).
